Assay results as given in patent US20250353924A1 (CITY OF HOPE, published 2025).
Substitutions are numbered along the chain they refer to.

T1: human CD84 on the cell surface (human, UniProt Q9UIB8 22-345)
T1 construct: whole, on cells; also called Cluster of Differentiation 84
T1 sequence (looked up): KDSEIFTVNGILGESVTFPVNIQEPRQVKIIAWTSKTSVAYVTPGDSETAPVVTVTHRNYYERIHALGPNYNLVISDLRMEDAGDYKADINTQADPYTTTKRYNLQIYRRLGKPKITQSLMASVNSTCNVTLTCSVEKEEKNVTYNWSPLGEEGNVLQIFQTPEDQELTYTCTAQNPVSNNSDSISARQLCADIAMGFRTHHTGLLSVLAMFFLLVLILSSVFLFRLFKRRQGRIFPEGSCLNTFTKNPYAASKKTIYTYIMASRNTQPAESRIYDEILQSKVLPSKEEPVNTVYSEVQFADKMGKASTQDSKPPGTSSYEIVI

B1: anti-CD84 hybridoma clone 2H7 (antibody, V domains shown)
VH: DVQLQESGPGLVKPSQSLSLTCTVTGYSITSDYAWNWIRQFPGNKLEWMGYISYSGTTSYNPSLKSRISITRDTSKNQFFLQLNSVTTEDTATYYCASLHYYGSRYKKLYAMDYWGQGTLATVSS
VL: NIVMTQSPKSMSMSVGERVTLSCKASDNVGTYVSWYQQKPEQSPKLLIYGASNRYTGVPDRFTGSGSATDFTLTISSVQAEDLADYHCGQSYSYPTFGGGTKLEIK
B2: anti-CD84 hybridoma clone 13D11 (antibody, V domains shown)
VH: QVTLKESGPGLLQPSQTLSLTCSFSGFSLNTSNMGVGWIRQPSGKDLEWLAHIWWDDVKRYNPALKSRLTISKDTSNNQVFLKIASVDTADTATYYCARMRGDYTMDYWGQGTSVTVSS
VL: DIVLTQSPASLAVSLGQRATLSCRASQSVSTSLYSYMHWYQQKPGQPPKLLIKYASDLESGVPARFSGSGSGTDFTLHIHPVEEEDTATYYCQHSWEIPYTFGGGTKLEIK
B3: anti-CD84 hybridoma clone 4B11 (antibody, V domains shown)
VH: EVKLVESGGGLVQPGGSLRLSCATSGFTFSDFYMDWVRQPPGKRLEWIATSRNKANDYTTEYSASVRGRFIVSRDTSQSILYLQMNALRAEDTAIYYCARDAVWEPFAYWGQGTLVTVSA
VL: EIVLTQSPTTMAASPGEKITVTCSANSSISSNSLHWYQQKPGFSPKLLIYRTSNLASGVPARFSGSGSGTSYFLTIGTMEAEDVATYYCQQGTSIPRTFGGGTKLEIK
B4: anti-CD84 hybridoma clone 5C6 (antibody, V domains shown)
VH: QVHLQQSGAELVRPGTSVKISCKASGYTFTNYWLGWVKQRPGHGLEWIGDIFPGGGYINYHEKFKGKATLTADTSSSTAYMQLSSLTSEDSAVYFCGYGNIAMDYWGQGTSVTVSS
VL: QIILTQTPAIMSASPGEKVTMTCSASSSVSYVHWYQQKSGTSPKRWIYDTSKLASGVPARFSGSGSGTSYSLTISTMEAEDAATYYCQQWNNSPRTFGGGTKLEIK
B5: anti-CD84 hybridoma clone 7D2 (antibody, V domains shown)
VH: B4 VH with G97A, I101V
VL: B4 VL with M21V
B6: anti-CD84 hybridoma clone 8A5 (antibody, V domains shown)
VH: QIQLVQSGPELKKPGETVKISCKASGYTFTTYSMHWVKQAPGKGLKWMGWIDTATGEPTYADDFKGRFAFSLETSASTAYLQINNLNNDDTATYFCVKSAYWYFDVWGAGTTVTVSS
VL: DVLMTQTPLSLPVSLGDQASISCRSSQSIVHINGNTYLEWYLQKPGQSPKLLIYKVSNRFSGVPDRFSGSGSGTDFTLKISRVEAEDLGVYYCFQGSHVPWTFGGGTKLEIK

Legend:
[1] = biological target: T1, human CD84 on the cell surface; assay: flow cytometry, control on NS0 cells expressing human CD84
[2] = biological target: T1, human CD84 on the cell surface; assay: flow cytometry, hybridoma supernatant on NS0 cells expressing human CD84
Experimental: Hybridoma clones selected from ELISA screening were subjected to flow cytometric analyses with NSO, a mouse myeloma cell line (ECACC), expressing human CD84 via lentiviral transduction. Half a million of transduced cells were incubated with 100 mL of hybridoma culture supernatants on ice for 30 min and washed with cold PBS containing 1% fetal bovine serum and 0.1% sodium azide.

Molecule | Geometric Mean [1] | Geometric Mean [2]
Ctrl | 88 | –
B1 | – | 1550
B2 | – | 2120
B3 | – | 1100
B4 | – | 1690
B5 | – | 2260
B6 | – | 1810
